PMC5982450

Columns and labels:
[1] = target: C5a receptor (C5aR) (human (endogenous in neutrophils)) (UniProt P21730)
[2] = target: formylated peptide receptors (FPR) (human (endogenous in neutrophils)) (UniProt P21462)
[3] = target: formylated peptide receptors (FPR) (human (endogenous in neutrophils)) (UniProt P21462); remark: listed apart in the source

Chain of UniProt P21730 (P21730 whole entry): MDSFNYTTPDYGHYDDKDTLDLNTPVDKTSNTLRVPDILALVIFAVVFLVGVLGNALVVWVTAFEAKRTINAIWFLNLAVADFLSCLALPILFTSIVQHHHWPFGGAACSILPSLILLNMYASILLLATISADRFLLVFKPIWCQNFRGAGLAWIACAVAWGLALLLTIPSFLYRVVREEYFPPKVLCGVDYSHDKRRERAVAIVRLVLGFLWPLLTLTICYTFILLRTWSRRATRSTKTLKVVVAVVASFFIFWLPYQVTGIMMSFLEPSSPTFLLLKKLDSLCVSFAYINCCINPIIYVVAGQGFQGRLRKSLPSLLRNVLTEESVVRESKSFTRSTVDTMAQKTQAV
Chain of UniProt P21462 (P21462 whole entry): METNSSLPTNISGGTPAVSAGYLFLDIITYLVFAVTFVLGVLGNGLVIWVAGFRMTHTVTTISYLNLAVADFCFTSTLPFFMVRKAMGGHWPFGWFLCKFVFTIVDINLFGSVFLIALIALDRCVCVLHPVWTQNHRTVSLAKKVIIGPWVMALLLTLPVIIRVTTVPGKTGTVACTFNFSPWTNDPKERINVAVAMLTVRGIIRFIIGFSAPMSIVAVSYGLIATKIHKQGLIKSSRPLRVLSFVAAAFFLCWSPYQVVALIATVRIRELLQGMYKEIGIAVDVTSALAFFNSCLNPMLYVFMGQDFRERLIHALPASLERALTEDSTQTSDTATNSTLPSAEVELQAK

Substance | neutrophil chemotaxis towards human fracture hematoma serum in a 3D fibrin gel, mean vector speed without vs with CHIPSΔ1F (10 μg/ml); value is the speed with CHIPSΔ1F [1] [μm/min] | neutrophil chemotaxis towards fMLF (10^-7 M) in a 3D fibrin gel, mean vector speed without vs with CHIPS (10 μg/ml); value is the speed with CHIPS [2] [μm/min] | neutrophil chemotaxis towards human fracture hematoma serum in a 3D fibrin gel, mean vector speed without vs with CHIPS (10 μg/ml); value is the speed with CHIPS [1] [μm/min] | neutrophil chemotaxis towards human fracture hematoma serum in a 3D fibrin gel, mean vector speed without vs with CHIPS (10 μg/ml); value is the speed with CHIPS [3] [μm/min]
CHIPSΔ1F, a CHIPS mutant lacking the first N-terminal amino acid (domain or fragment) | 4 | – | – | –
chemotaxis inhibitory protein of Staphylococcus aureus (CHIPS) (from UniProt A6QIG7 29-149) (natural protein) | – | 0.4 | 3.3 | 3.3
